By Kd is commonly meant the free concentration of one partner at which half of the binding sites on the other are occupied at equilibrium, for simple one-to-one binding. Higher therefore signals lower affinity.

The data set concerns the target T1, LL37 (human cathelicidin peptide LL-37) (Homo sapiens, UniProt P49913 P49913:134-170).
T1 chain: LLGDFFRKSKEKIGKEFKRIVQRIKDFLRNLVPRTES
The data set is described as follows: SPR; biotinylated aptamer immobilised, increasing LL37 added; nonsense DNA on reference channel. Conditions: label: biotin (immobilised on neutravidin SPR chip). As to the method: Aptamers were immobilized to the test channel of a neutravidin-coated SPR chip via standard biotin modification. A nonsense DNA was immobilized on the reference channel to identically match the electrostatic conditions of each channel, and then increasing concentrations of target protein LL37 were added such that no regeneration steps are required. The differential response to each dose was extracted and fit to a binding isotherm model to accurately determine Kd.

B1: SEQ7 (Apta#222) (ssDNA)
DNA: ACTGGGTCTCACCATCGAAAATCGAAATGACTAAAAGGCC
The molecule B1 gave a Kd of 118 nM.

The values are drawn from patent US20120121533, “NUCLEIC ACID LIGANDS TO LL37” (BIOTEX, INC., published 2012).
